Test results published in US10087225B2, “Formulation of MK2 inhibitor peptides” (MOERAE MATRIX, INC., priority 2015, dated 2018).

Assays:
Experiment in all cases: Kinase Profiling Assay
Type in all cases: biochemical
Settings in all cases: for % activity: 100 μM
ALK(h) = ALK(h) (Homo sapiens, UniProt Q9UM73)
Ax1(h) = Ax1(h) (Homo sapiens, UniProt P30530)
EGFR(L858R)(h) = EGFR(L858R)(h) (Homo sapiens, UniProt P00533, L858R)
IGF-1R(h), activated = IGF-1R(h), activated (Homo sapiens, UniProt P08069)
JAK2(h) = JAK2(h) (Homo sapiens, UniProt O60674)
MAPKAP-K3(h) = MAPKAP-K3(h) (Homo sapiens, UniProt Q16644)
Chain of MAPKAP-K3(h) (Q16644 whole entry): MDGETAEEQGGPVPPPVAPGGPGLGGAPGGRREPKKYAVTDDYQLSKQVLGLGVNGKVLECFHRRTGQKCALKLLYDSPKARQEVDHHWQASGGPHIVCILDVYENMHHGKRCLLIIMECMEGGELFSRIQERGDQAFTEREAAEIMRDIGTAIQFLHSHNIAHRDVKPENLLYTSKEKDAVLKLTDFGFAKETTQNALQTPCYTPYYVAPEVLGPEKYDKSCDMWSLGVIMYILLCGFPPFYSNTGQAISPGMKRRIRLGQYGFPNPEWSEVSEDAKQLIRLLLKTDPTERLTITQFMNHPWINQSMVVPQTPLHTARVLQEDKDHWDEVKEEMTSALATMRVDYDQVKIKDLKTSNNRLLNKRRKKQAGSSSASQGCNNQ

Met(Y1248C)(h) = Met(Y1248C)(h) (Homo sapiens, UniProt P08581, Y1230C)
Met(Y1248H)(h) = Met(Y1248H)(h) (Homo sapiens, UniProt P08581, Y1230H)
PKCδ(h) = PKCδ(h) (Homo sapiens, UniProt Q05655)
Chain of PKCδ(h) (Q05655 whole entry): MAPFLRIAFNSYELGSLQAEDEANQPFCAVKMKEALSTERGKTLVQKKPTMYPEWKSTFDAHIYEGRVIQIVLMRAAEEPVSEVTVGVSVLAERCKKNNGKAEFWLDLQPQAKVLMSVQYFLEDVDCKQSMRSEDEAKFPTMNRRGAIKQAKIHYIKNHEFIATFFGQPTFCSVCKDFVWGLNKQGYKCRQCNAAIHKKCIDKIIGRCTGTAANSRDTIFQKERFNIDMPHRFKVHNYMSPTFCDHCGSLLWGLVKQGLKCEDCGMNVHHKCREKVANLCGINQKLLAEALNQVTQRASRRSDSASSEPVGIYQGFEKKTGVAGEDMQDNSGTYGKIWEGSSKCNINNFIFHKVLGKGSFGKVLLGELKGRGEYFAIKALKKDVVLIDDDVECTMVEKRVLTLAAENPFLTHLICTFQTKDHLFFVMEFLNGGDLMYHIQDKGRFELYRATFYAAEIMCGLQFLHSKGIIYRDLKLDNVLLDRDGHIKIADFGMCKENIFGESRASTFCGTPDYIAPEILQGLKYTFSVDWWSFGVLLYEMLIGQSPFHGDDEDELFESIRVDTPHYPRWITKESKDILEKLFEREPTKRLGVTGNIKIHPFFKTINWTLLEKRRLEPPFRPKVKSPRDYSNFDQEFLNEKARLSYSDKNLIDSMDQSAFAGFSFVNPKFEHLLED

TAO2(h) = target: T1, TAO2(h) (Homo sapiens, UniProt Q9UL54)
T1 sequence (Q9UL54 1-1235): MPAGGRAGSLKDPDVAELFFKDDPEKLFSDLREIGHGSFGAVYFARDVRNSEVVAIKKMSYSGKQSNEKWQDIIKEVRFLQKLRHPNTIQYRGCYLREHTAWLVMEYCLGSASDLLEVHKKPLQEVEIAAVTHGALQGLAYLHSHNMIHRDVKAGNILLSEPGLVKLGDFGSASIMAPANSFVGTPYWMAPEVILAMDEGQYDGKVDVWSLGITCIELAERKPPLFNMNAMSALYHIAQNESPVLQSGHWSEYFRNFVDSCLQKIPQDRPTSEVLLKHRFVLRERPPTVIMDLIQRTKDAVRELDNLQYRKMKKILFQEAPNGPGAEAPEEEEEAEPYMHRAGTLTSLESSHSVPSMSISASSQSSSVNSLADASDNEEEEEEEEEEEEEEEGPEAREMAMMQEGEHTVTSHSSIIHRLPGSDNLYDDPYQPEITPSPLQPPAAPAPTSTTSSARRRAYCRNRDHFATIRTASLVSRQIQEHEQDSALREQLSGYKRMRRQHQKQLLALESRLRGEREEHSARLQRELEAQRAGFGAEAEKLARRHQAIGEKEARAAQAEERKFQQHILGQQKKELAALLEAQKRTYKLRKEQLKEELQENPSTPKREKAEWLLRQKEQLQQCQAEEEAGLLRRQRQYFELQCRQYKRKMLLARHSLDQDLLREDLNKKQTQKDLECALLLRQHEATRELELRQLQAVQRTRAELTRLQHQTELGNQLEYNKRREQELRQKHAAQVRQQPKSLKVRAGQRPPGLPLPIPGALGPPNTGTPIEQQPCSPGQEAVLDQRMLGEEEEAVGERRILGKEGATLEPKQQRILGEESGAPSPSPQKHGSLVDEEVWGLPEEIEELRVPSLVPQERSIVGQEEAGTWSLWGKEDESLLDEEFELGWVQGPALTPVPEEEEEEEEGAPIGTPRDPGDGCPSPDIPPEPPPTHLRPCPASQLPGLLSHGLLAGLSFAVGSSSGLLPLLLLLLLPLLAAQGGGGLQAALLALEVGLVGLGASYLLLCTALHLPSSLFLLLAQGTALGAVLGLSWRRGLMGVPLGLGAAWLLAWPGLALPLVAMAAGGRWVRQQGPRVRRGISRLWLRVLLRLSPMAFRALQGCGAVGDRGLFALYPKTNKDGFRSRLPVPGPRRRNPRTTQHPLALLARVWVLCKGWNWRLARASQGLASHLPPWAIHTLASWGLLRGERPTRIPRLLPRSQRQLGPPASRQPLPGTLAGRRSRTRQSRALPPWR

Tie2(h) = Tie2(h) (Homo sapiens, UniProt Q02763)
Chain of Tie2(h) (Q02763 23-1124): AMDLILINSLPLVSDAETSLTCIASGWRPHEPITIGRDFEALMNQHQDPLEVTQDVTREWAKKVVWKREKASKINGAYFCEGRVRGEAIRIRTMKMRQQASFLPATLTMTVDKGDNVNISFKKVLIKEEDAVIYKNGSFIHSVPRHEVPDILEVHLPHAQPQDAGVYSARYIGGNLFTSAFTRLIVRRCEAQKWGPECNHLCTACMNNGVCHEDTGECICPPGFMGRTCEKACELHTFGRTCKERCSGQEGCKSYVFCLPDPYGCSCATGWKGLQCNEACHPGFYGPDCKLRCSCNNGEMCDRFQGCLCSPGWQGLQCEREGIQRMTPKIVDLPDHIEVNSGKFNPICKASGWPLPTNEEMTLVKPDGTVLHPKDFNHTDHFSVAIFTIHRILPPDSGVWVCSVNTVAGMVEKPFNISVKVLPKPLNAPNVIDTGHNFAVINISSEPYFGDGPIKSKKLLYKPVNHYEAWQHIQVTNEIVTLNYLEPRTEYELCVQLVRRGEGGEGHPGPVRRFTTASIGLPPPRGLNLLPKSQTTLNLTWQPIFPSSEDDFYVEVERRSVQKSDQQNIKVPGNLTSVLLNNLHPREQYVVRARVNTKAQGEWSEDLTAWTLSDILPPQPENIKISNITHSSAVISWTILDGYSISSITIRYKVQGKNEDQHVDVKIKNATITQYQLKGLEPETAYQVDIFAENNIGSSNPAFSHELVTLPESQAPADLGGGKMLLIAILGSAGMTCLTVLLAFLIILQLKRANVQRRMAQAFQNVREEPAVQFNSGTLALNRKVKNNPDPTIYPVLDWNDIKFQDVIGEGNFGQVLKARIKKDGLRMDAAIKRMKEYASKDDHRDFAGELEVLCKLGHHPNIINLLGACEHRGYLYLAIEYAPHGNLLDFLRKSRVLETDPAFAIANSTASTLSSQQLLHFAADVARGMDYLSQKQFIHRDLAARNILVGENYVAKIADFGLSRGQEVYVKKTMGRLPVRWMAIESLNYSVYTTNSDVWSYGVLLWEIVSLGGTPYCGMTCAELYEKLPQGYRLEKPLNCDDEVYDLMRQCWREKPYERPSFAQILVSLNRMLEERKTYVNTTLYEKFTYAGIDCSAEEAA

TrkB(h) = TrkB(h) (Homo sapiens, UniProt Q16620)
WNK2(h) = WNK2(h) (Homo sapiens, UniProt Q9Y3S1)
Chain of WNK2(h) (Q9Y3S1 whole entry): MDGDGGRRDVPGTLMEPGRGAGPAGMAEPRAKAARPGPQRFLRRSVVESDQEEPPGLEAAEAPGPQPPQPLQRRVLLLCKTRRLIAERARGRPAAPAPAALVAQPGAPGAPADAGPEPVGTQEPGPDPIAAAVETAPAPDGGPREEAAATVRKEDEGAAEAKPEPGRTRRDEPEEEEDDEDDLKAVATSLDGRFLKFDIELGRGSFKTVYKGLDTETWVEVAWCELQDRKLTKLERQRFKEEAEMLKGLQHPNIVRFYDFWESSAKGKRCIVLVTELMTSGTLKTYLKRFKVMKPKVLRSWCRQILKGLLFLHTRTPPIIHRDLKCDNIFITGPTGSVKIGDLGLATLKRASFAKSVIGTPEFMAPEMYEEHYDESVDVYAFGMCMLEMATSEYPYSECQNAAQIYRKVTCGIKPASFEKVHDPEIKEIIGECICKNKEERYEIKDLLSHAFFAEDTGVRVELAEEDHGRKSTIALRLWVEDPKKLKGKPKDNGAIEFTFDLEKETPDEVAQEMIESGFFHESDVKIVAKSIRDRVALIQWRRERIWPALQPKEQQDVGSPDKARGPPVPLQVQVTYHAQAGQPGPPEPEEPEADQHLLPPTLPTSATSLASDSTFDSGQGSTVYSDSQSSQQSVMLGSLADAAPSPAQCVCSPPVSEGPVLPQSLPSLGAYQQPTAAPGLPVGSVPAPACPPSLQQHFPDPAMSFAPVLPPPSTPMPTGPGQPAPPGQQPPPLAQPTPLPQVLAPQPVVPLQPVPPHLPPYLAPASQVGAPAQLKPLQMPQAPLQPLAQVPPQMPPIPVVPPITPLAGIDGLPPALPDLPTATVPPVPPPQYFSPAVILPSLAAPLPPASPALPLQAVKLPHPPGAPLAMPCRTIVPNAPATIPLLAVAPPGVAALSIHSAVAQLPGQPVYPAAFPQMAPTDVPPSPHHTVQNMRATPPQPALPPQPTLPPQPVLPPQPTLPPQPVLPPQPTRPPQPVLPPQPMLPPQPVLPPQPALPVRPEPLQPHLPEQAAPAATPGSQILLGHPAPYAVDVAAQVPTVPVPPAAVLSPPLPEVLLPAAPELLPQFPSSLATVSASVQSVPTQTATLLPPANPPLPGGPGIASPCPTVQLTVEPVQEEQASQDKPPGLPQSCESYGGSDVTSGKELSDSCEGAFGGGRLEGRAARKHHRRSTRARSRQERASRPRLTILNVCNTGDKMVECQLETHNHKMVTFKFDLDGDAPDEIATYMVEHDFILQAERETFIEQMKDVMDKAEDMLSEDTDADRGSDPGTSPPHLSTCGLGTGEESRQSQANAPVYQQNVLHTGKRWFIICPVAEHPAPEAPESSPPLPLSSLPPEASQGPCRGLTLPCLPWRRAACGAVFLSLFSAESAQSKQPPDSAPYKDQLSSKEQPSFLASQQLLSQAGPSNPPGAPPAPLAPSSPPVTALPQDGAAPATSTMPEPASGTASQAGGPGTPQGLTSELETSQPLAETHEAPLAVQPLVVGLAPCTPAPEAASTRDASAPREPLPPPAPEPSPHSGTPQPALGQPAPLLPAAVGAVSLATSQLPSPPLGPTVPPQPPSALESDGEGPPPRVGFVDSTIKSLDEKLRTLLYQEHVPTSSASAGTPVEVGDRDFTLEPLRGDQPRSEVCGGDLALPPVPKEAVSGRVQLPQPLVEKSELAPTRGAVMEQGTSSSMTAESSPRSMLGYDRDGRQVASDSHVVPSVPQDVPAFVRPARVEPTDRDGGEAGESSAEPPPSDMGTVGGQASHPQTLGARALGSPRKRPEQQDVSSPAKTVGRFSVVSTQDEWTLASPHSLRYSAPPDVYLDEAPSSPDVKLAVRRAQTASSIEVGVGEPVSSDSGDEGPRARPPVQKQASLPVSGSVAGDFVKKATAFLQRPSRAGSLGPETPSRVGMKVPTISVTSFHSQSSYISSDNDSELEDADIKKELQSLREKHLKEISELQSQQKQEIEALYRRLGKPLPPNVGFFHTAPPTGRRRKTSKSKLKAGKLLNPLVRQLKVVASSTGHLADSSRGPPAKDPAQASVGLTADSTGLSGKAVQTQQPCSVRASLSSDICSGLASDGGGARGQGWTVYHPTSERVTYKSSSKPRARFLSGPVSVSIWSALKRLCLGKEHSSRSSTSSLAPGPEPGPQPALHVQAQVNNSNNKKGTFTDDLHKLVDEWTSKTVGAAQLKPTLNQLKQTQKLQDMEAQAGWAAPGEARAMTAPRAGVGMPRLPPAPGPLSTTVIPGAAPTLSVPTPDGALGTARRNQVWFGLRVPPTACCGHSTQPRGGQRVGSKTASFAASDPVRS

Row | Substance | % activity (ALK(h)) [%] | % activity (Ax1(h)) [%] | % activity (EGFR(L858R)(h)) [%] | % activity (IGF-1R(h), activated) [%] | % activity (JAK2(h)) [%] | % activity (MAPKAP-K3(h)) [%] | % activity (Met(Y1248C)(h)) [%] | % activity (Met(Y1248H)(h)) [%] | % activity (PKCδ(h)) [%] | % activity (TAO2(h)) [%] | % activity (Tie2(h)) [%] | % activity (TrkB(h)) [%] | % activity (WNK2(h)) [%] | further results
1 | H-YARAAARQARAKALARQLGVAA-OH [MMI-0100] |  |  |  |  |  |  |  |  |  |  |  |  |  | activity at 100 µM (ALK(h)): 118%; activity at 100 µM (Ax1(h)): 81%; activity at 100 µM (EGFR(L858R)(h)): 76%; activity at 100 µM (IGF-1R(h), activated): 126%; activity at 100 µM (JAK2(h)): 89%; activity at 100 µM (MAPKAP-K3(h)): 27%; activity at 100 µM (Met(Y1248C)(h)): 77%; activity at 100 µM (Met(Y1248H)(h)): 88%; activity at 100 µM (PKCδ(h)): 100%; activity at 100 µM (TAO2(h)): 95%; activity at 100 µM (Tie2(h)): 28%; activity at 100 µM (TrkB(h)): 4%; activity at 100 µM (WNK2(h)): 95%
2 | HRRIKAWLKKIKALARQLGVAA (Mammalian) [MMI-0500] | 12 | 12 | 26 | 45 | 49 | 9 | 73 | 126 | 61 | 15 | 22 | 12 | 8 | 
3 | YARAAARQARAKALNRQLGVA (Mammalian) [MMI-0200] | 95 | 99 | 120 | 94 | 131 | 39 | 141 | 153 | 101 | 93 | 53 | 7 | 94 | 
